First the molecules themselves.
B1: SARS-CoV N protein (purified recombinant) (natural protein)
chain: not shown
B2: recombinant MASP-2 (purified) (enzyme, human, UniProt O00187 16-686, looked up)
chain: TPLGPKWPEPVFGRLASPGFPGEYANDQERRWTLTAPPGYRLRLYFTHFDLELSHLCEYDFVKLSSGAKVLATLCGQESTDTERAPGKDTFYSLGSSLDITFRSDYSNEKPFTGFEAFYAAEDIDECQVAPGEAPTCDHHCHNHLGGFYCSCRAGYVLHRNKRTCSALCSGQVFTQRSGELSSPEYPRPYPKLSSCTYSISLEEGFSVILDFVESFDVETHPETLCPYDFLKIQTDREEHGPFCGKTLPHRIETKSNTVTITFVTDESGDHTGWKIHYTSTAQPCPYPMAPPNGHVSPVQAKYILKDSFSIFCETGYELLQGHLPLKSFTAVCQKDGSWDRPMPACSIVDCGPPDDLPSGRVEYITGPGVTTYKAVIQYSCEETFYTMKVNDGKYVCEADGFWTSSKGEKSLPVCEPVCGLSARTTGGRIYGGQKAKPGDFPWQVLILGGTTAAGALLYDNWVLTAAHAVYEQKHDASALDIRMGTLKRLSPHYTQAWSEAVFIHEGYTHDAGFDNDIALIKLNNKVVINSNITPICLPRKEAESFMRTDDIGTASGWGLTQRGFLARNLMYVDIPIVDHQKCTAAYEKPPYPRGSVTANMLCAGLESGGKDSCRGDSGGALVFLDSETERWFVGGIVSWGSMNCGEAGQYGVYTKVINYIPWIENIISDF
notes: also called Purified MASP-2

In test [1] the target is B2. Briefly: SPR; purified proteins; who was immobilised and the conditions not given. Conditions: both partners purified. On the technique in general: SPR reads the build-up and loss of mass on a sensor chip optically.
Test [2] has as its target Purified SARS-CoV-2 N-His (SARS-CoV-2, UniProt P0DTC9 1-419). The description is as above. The following applies: both partners purified.

Usually Kd stands for the constant that tells how readily two partners part at equilibrium. For B1, the Kd in test [1] came out at 0.268 µM. For the molecule B2, in test [2], binding was put at a Kd of 0.518 µM.
